The target of assay [1] is complement C3c (human) (UniProt P01024). In words: SPR; Biacore X100, C3c amine-coupled to CM5 chip, C3d as analyte, 25 °C, 30 μl/min, steady state analysis; 10 mM Hepes, 50 mM NaCl, pH 7.4. In general terms: Surface plasmon resonance follows binding to a sensor surface in real time, without labels.
For assay [2] the target is unchanged. Kind of assay: AUC; sedimentation velocity, c(s) analysis; PBS in 2H2O (137 mM NaCl, pH 7.4); monomer to dimer, proportions by peak integration.
Assay [3] shares this target. In words: AUC; sedimentation velocity, c(s) analysis (SEDFIT), 50,000 rpm, 20 °C; 10 mM Hepes, 50 mM NaCl, pH 7.4; monomer to dimer, KD estimated.
Assay [4] has the same target. Kind of assay: AUC; sedimentation velocity, c(s) analysis (SEDFIT), 50,000 rpm, 20 °C; 10 mM Hepes, 137 mM NaCl, pH 7.4; monomer to dimer, KD estimated from peak integration.
In assay [5] the target is recombinant wild-type C3d (E1032) (human) (UniProt P01024). Kind of assay: AUC; sedimentation velocity, c(s) analysis; PBS in 2H2O (137 mM NaCl, pH 7.4); monomer to dimer, proportions by peak integration.
Assay [6] shares this target. Kind of assay: AUC; sedimentation velocity, c(s) analysis (SEDFIT), 50,000 rpm, 20 °C; 10 mM Hepes, 50 mM NaCl, pH 7.4; monomer to dimer, KD estimated.
For assay [7] the target is unchanged. In words: AUC; sedimentation velocity, c(s) analysis (SEDFIT), 50,000 rpm, 20 °C; 10 mM Hepes, 137 mM NaCl, pH 7.4; monomer to dimer, KD estimated from peak integration.

We go through three substances from paper PMC4303685.

One may read the stoichiometry N as the number of molecules, sites or subunits per partner or assembly. Usually Kd stands for a measure of binding affinity in units of concentration.

In the assay with complement C3c (human) [1], “mutant C3d (A1032), C3d E1032A (from UniProt P01024 996-1287) (domain or fragment)” returned a fold less binding than wild-type C3d of 10 fold.

In the assay with complement C3c (human) [2], “complement C3c (from UniProt P01024 23-667; P01024 749-954; P01024 1321-1663) (domain or fragment)” registered a dimer proportion of 7% and a stoichiometry N of 2. Besides, in the assay with complement C3c (human) [3], the Kd is 50 µM and the stoichiometry N was 2. Moreover, in the assay with complement C3c (human) [4], the Kd was 60 µM; the dimer, percent of the total is 6%; the stoichiometry N is 2.

Take “recombinant wild-type C3d (E1032) (from UniProt P01024 996-1287) (domain or fragment)”: in assay [5], the dimer proportion stood at 12% and the stoichiometry N worked out at 2. Moreover, in assay [6], the dissociation constant Kd was 25 µM and the stoichiometry N was 2. Further, in the assay with complement C3c (human) [1], the Kd is 51 µM. Moreover, in assay [7], the dimer, percent of the total was 10% and the stoichiometry N was 2.
